Test results from patent WO2005054294A2 (dated 2005).

Target: T1, human platelet glycoprotein VI (human, UniProt Q9HCN6 21-339)
T1 sequence (looked up): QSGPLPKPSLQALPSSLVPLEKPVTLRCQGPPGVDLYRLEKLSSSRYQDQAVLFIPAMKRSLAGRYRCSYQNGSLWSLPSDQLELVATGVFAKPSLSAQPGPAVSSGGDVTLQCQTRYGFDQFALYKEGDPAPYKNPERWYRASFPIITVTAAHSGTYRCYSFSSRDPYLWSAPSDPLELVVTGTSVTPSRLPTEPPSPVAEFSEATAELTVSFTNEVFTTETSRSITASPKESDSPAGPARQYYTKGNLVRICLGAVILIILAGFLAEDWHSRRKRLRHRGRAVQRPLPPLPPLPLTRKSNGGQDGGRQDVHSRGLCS
Assay: cell-based or functional assay

B1: hGP 5C4 Fab (Fab, V domains shown)
VH: EVKLQESGGGLVQPGRSLKLSCTASGFTFSDYFMSWVRQAPTRGLEWVASISSGGASAYWRDSVKGRFTISRDNAKSALYLQMDSLRSEDTATYFCARGELDFDYWGQGVMVAVSS
VL: ADPNSTLLSASVGDRVTLNCTASQNVYKNLAWYQQKLGEAPRLLLYSANSQTGIPSRFSGSGSGPDFTLTISSLQPEDVASYFCQQYYSGNTFGAGTKLELKR
  IC50 of inhibition of collagen-induced (3 ug/ml) human platelet aggregation ex vivo: 0.12 µg/mL
